The source of these data is patent US20150203575A1 (Genentech, published 2015).

The target of assay [1] is T1, IL-2Ra expressed on cells (human, UniProt P01589 22-272).
T1 construct: Clone of the Origene human cDNA library; also called Interleukin 2 receptor alpha
T1 sequence: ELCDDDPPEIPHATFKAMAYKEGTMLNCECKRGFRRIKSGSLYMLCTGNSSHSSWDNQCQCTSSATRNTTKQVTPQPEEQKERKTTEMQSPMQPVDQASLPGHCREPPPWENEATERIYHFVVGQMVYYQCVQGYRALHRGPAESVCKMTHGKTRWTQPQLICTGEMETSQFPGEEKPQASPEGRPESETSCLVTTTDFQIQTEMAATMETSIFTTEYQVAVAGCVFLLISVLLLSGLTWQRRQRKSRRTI
Description: flow cytometry, transfected 293T cells, 50 µg/ml. Background: A flow cytometer gives signals particle by particle.

Assay [2] deals with T2, PSS8 expressed on cells (human, UniProt Q16651 30-343).
T2 construct: Clone of the Origene human cDNA library; also called Protease serine 8; prostasin
Put plainly: flow cytometry, transfected 293T cells, 50 µg/ml.

Assay [3] concerns the target T3, MAG expressed on cells (human, UniProt P20916 20-626).
T3 construct: Clone of the Origene human cDNA library; also called Myelin associated glycoprotein; SIGLEC4A
T3 sequence: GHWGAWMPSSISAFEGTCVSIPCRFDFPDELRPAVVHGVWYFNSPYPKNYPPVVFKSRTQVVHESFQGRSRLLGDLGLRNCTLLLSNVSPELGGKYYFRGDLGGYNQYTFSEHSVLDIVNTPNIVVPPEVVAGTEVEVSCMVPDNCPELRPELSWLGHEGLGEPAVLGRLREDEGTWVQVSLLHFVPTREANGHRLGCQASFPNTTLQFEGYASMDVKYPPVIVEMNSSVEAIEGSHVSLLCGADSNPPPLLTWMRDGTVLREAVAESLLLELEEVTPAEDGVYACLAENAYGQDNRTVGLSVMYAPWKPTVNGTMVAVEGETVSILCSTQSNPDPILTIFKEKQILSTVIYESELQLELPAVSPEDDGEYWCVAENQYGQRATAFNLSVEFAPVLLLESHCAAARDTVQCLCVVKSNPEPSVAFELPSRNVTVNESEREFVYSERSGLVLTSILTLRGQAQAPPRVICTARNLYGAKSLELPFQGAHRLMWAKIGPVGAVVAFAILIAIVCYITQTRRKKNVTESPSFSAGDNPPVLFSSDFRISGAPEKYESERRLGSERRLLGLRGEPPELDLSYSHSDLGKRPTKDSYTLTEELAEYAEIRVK
Put plainly: flow cytometry, transfected 293T cells, 2 µg/ml.

Assay [4] concerns the target T1, IL-2Ra expressed on cells. Put plainly: flow cytometry, transfected 293T cells, 50 µg/ml. This is another data set of the same source.
The target of assay [5] is T2, PSS8 expressed on cells. Put plainly: flow cytometry, transfected 293T cells, 50 µg/ml. This is another data set of the same source.
Assay [6] deals with T4, BR3 expressed on cells (human, UniProt Q96RJ3 1-184).
T4 construct: Clone of the Origene human cDNA library
T4 sequence: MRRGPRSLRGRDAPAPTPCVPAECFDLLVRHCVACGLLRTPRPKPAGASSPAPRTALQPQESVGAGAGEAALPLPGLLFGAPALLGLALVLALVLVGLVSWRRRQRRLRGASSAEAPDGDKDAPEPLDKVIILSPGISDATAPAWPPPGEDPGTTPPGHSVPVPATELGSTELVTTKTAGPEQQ
Put plainly: flow cytometry, transfected 293T cells, 50 µg/ml.

In assay [7] the target is T5, human COLEC12 expressed on cells (human, UniProt Q5KU26 1-742).
T5 construct: also called hCOLEC12; C-terminal his tagged hCOLEC12
Description: flow cytometry, transfected 293T cells, 50 µg/ml; 293T-Neo: 1.1.

For assay [8], the target named is T6, human NPDC1 expressed on cells (human, UniProt Q9NQX5 35-325).
T6 construct: also called hNPDC1; hNPCD1
T6 sequence: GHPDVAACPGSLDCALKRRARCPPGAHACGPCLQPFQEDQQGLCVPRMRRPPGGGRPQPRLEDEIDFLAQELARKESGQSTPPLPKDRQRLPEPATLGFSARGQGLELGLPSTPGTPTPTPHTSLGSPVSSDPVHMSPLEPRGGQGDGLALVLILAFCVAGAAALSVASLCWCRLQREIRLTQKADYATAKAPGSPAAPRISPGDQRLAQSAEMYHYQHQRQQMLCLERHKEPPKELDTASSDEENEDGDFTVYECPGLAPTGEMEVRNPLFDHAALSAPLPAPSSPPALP
Described as above.

The target in assay [9] is T7, mouse CD99 expressed on 293T cells (mouse, UniProt Q8VCN6 29-175, sialylated O-glycans at Thr-45 and Thr-50 (cited as relevant for PILRα recognition)).
T7 construct: whole, on cells; also called mCD99; mCD99 transfectants
T7 sequence (looked up): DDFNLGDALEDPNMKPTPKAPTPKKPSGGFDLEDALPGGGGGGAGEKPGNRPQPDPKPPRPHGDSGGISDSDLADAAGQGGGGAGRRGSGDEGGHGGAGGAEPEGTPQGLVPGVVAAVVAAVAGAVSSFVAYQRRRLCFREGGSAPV
The assay is described as above.

The target in assay [10] is T1, IL-2Ra expressed on cells. Description: flow cytometry, transfected 293T cells.
In assay [11] the target is T2, PSS8 expressed on cells. Description: flow cytometry, transfected 293T cells.
Assay [12] addresses T4, BR3 expressed on cells. Description: flow cytometry, transfected 293T cells.
Assay [13] addresses T8, LRRTM4 expressed on cells (human, UniProt Q86VH4 31-590).
T8 construct: Clone of the Origene human cDNA library; also called Leucine rich repeat transmembrane neuronal 4
Put plainly: flow cytometry, transfected 293T cells.

For assay [14], the target named is T5, human COLEC12 expressed on cells. Description: AP staining of transfected COS7 cells with AP fusion supernatant.
Description: (§1) 2931 cells were transfected with PILRα-AP-pRK5 constructs and Fugene 6 Transfection Reagent (Roche) according to the manufacturer's instructions. Three days after transfection, supernatants were collected for screening. COS7 cells were plated in a 24-well format and transfected with 10 ul of Origene library DNA (Origene, human DNA library containing 20 k genes) per well with Fugene 6 Reagent. Two days later, cells were incubated with human or mouse PILRα-Ap supernatants for 45 min at room temperature (RT). Then cells were fixed with 4% PFA for 15 min at RT. After removing fixation buffer, cells were blocked with 100 mM Glycine in HBS (20 mM Hepes, PH7.2, 150 mM NaCl) for 15 min at RT. Cells were then rinsed and incubated in HBS for 90 min at 65° C. HBS was removed and Western Blue Substrate (Promega) was added and color was developed for 30 min to 1 hr.
Assay [15] deals with T6, human NPDC1 expressed on cells. Described as above.
Description: as §1

Where two headings read alike, the source gives them in different places.

T2 sequence (Q16651 30-343 limits assumed): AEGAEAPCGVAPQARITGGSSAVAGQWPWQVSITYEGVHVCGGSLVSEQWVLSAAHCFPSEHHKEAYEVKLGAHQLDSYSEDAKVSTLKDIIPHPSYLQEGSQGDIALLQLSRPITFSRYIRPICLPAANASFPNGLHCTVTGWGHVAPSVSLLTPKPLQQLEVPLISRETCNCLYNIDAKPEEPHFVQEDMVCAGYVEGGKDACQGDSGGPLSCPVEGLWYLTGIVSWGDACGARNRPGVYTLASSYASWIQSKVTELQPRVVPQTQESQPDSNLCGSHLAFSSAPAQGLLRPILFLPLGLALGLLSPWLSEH
T5 sequence (Q5KU26 whole entry S522P/G606S): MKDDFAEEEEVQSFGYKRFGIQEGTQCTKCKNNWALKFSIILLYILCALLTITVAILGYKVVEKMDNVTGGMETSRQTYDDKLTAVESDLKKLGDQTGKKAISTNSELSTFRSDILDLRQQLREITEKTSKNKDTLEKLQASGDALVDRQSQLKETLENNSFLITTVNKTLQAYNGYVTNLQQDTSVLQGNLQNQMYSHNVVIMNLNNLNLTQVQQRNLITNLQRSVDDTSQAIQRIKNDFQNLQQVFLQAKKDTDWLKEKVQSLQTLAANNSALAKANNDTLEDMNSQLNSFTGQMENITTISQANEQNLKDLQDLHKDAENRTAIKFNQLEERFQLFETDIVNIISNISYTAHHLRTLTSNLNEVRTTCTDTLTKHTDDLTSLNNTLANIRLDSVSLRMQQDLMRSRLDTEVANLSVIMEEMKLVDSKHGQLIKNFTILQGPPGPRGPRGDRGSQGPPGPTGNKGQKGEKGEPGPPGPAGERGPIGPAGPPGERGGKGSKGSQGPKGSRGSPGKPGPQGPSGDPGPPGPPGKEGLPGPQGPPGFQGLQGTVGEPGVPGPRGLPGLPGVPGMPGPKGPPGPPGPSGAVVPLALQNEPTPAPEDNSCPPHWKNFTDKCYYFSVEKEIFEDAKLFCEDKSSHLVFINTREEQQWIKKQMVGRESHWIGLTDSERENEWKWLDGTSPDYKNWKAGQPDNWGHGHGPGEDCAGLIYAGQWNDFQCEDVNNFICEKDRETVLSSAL
T8 sequence (Q86VH4 31-590 limits assumed): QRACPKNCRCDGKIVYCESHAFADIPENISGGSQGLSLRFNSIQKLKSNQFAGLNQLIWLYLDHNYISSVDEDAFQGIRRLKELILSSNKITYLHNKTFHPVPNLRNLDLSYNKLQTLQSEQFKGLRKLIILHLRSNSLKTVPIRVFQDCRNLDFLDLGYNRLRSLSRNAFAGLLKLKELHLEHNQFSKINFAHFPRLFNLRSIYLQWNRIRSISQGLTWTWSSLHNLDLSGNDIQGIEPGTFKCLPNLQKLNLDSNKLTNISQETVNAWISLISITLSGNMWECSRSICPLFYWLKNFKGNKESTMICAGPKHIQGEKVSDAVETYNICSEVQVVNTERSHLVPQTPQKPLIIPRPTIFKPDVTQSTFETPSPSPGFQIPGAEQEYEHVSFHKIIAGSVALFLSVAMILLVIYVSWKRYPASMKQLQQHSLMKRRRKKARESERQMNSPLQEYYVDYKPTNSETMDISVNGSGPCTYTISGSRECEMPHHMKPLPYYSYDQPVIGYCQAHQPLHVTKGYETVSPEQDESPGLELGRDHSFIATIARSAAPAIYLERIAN

B1: mPILRα-Fc (Fc fusion)
chain: not shown
notes: also called mouse PILRα-Fc; WT mPILRα-Fc; not shown: Fc of mouse IgG2a (PILRα-mIgG2a, called PILRα-Fc)
On to B1, for which the “% cells in lower right quadrant” value was 55.7% in [1]; 30.6% in [2]; 0.039% in [3]; 55.7% in assay [4]; 30.6% in assay [5]; 53.3% in assay [6]. For the same molecule, the “% cells in lower right quadrant” value in assay [7] came out at 10.1%; in assay [8] it was 40.9%; in assay [9], 46.4%.

B2: mPILRαR133A-Fc (Fc fusion)
chain: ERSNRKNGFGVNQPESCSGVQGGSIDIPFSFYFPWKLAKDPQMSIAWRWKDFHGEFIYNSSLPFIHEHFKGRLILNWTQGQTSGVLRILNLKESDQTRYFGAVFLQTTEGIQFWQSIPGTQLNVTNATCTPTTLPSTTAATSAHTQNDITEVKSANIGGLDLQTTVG
notes: Arg mutant of mPILRα-Fc; also called mPILRα133A-Fc; variant mPILRα (R133A); not shown: Fc of mouse IgG2a (PILRα-mIgG2a, called PILRα-Fc)
With B2, the binding result in [10], in assay [11], in assay [12] and in assay [13] was “no binding (tested: 50 µg/ml)” in each case.

B3: hPILRα-AP (other)
chain: QPSGSTGSGPSYLYGVTQPKHLSASMGGSVEIPFSFYYPWELATAPDVRISWRRGHFHRQSFYSTRPPSIHKDYVNRLFLNWTEGQKSGFLRISNLQKQDQSVYFCRVELDTRSSGRQQWQSIEGTKLSITQAVTTTTQRPSSMTTTWRLSSTTTTTGLRVTQGKRRSDSWHISLET
notes: Used as culture supernatant; also called human PILRα-AP; Alkaline phosphatase (AP)-tagged PILRα construct; not shown: C-terminal alkaline phosphatase (AP) tag
In the case of B3, the binding result in assay [14] and in assay [15] was “binds” in each case.
